Tests used:
Assay in all cases: cell-based or functional assay
[1] = target: HIV-1 Env of isolate VLGCB3 (HIV-1)
[2] = target: HIV-1 Env of isolate MGRM-F1-018 (HIV-1)
[3] = target: HIV-1 Env of isolate 93IN905 (HIV-1)
[4] = target: HIV-1 Env of isolate MGRM-Chronic-B-012 (HIV-1)
[5] = target: HIV-1 Env of isolate MGRM-D-011 (HIV-1)
[6] = target: HIV-1 Env of isolate MGRM-Chronic-B-023 (HIV-1)
[7] = target: HIV-1 Env of isolate SF162 (HIV-1) (UniProt P19550)
[8] = target: HIV-1 Env of isolate MGRM-D-021 (HIV-1)
[9] = target: HIV-1 Env of isolate QH0692.42 (HIV-1)
[10] = target: HIV-1 Env of isolate MGRM-F1-004 (HIV-1)
[11] = target: HIV-1 Env of isolate MGRM-D-016 (HIV-1)
[12] = target: HIV-1 Env of isolate MGRM-F1-012 (HIV-1)
[13] = target: HIV-1 Env of isolate MGRM-D-024 (HIV-1)
[14] = target: HIV-1 Env of isolate MGRM-F1-013 (HIV-1)
[15] = target: HIV-1 Env of isolate MGRM-D-018 (HIV-1)
[16] = target: HIV-1 Env of isolate MGRM-D-019 (HIV-1)
[17] = target: HIV-1 Env of isolate MGRM-Chronic-B-011 (HIV-1)
[18] = target: HIV-1 Env of isolate MGRM-F1-010 (HIV-1)
[19] = target: HIV-1 Env of isolate MGRM-D-022 (HIV-1)
[20] = target: HIV-1 Env of isolate MGRM-F1-008 (HIV-1)
[21] = target: HIV-1 Env of isolate MGRM-D-012 (HIV-1)
[22] = target: HIV-1 Env of isolate MGRM-Chronic-B-018 (HIV-1)
[23] = target: HIV-1 Env of isolate MGRM-F1-023 (HIV-1)
[24] = target: HIV-1 Env of isolate MGRM-D-013 (HIV-1)
[25] = target: HIV-1 Env of isolate MGRM-F1-017 (HIV-1)
[26] = target: HIV-1 Env of isolate TRJ04551.58 (HIV-1)
[27] = target: HIV-1 Env of isolate MGRM-F1-006 (HIV-1)
[28] = target: HIV-1 Env of isolate MGRM-F1-014 (HIV-1)
[29] = target: HIV-1 Env of isolate SC422661.8 (HIV-1)
[30] = target: HIV-1 Env of isolate NL43 (HIV-1)
[31] = target: HIV-1 Env of isolate MGRM-Chronic-B-024 (HIV-1)
[32] = target: HIV-1 Env of isolate MGRM-D-029 (HIV-1)
[33] = target: HIV-1 Env of isolate MGRM-Chronic-B-010 (HIV-1)
[34] = target: HIV-1 Env of isolate JRCSF (HIV-1) (UniProt P20871)
[35] = target: HIV-1 Env of isolate MGRM-F1-022 (HIV-1)
[36] = target: HIV-1 Env of isolate MGRM-D-020 (HIV-1)
[37] = target: HIV-1 Env of isolate MGRM-D-014 (HIV-1)
[38] = target: HIV-1 Env of isolate MGRM-F1-020 (HIV-1)
[39] = target: HIV-1 Env of isolate MGRM-F1-021 (HIV-1)
[40] = target: HIV-1 Env of isolate THR0.18 (HIV-1)
[41] = target: HIV-1 Env of isolate 98IN022 (HIV-1)
[42] = target: HIV-1 Env of isolate MGRM-Chronic-B-020 (HIV-1)
[43] = target: HIV-1 Env of isolate MGRM-D-028 (HIV-1)
[44] = target: HIV-1 Env of isolate PVO.4 (HIV-1)
[45] = target: HIV-1 Env of isolate TRO.11 (HIV-1)
[46] = target: HIV-1 Env of isolate MGRM-F1-016 (HIV-1)
[47] = target: HIV-1 Env of isolate 97ZA012 (HIV-1)
[48] = target: HIV-1 Env of isolate MGRM-D-026 (HIV-1)
[49] = target: HIV-1 Env of isolate 93MW959 (HIV-1)
[50] = target: HIV-1 Env of isolate MGRM-Chronic-B-017 (HIV-1)
[51] = target: HIV-1 Env of isolate MGRM-F1-015 (HIV-1)

PGT-142 (antibody), sequence (VH): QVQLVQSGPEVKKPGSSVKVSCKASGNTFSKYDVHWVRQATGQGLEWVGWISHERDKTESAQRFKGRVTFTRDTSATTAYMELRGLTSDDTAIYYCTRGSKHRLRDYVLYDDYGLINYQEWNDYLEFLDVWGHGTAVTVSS
PGT-142 (antibody), sequence (VL): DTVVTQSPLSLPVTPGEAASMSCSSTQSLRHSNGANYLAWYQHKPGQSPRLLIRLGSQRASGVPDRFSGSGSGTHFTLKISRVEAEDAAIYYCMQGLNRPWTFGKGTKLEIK
PGT-145 (antibody), sequence (VH): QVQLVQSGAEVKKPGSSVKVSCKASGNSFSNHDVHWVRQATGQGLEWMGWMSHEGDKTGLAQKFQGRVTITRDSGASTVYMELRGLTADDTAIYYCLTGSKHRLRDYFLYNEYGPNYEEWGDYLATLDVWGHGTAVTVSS
PGT-145 (antibody), sequence (VL): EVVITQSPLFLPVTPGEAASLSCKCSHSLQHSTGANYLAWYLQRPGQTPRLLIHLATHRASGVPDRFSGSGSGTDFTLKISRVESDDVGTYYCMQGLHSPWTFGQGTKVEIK

PGT-142 (antibody)
neutralization IC50 [1]: > 50 µg/mL
IC50, pseudovirus neutralization [2]: 0.404 µg/mL
neutralization IC50 [3]: 0.001 µg/mL
neutralization IC50 [4]: > 50 µg/mL
IC50, pseudovirus neutralization [5]: > 50 µg/mL
neutralization IC50 [6]: 0.486 µg/mL
neutralization IC50 [7]: > 50 µg/mL
IC50, pseudovirus neutralization [8]: > 50 µg/mL
neutralization IC50 [9]: > 50 µg/mL
IC50, pseudovirus neutralization [10]: 0.013 µg/mL
IC50, pseudovirus neutralization [11]: > 50 µg/mL
IC50, pseudovirus neutralization [12]: > 50 µg/mL
IC50, pseudovirus neutralization [13]: > 50 µg/mL
IC50, pseudovirus neutralization [14]: 0.023 µg/mL
IC50, pseudovirus neutralization [15]: > 50 µg/mL
IC50, pseudovirus neutralization [16]: 0.155 µg/mL
neutralization IC50 [17]: 0.994 µg/mL
IC50, pseudovirus neutralization [18]: > 50 µg/mL
IC50, pseudovirus neutralization [19]: > 50 µg/mL
IC50, pseudovirus neutralization [20]: 0.124 µg/mL
IC50, pseudovirus neutralization [21]: > 50 µg/mL
neutralization IC50 [22]: 0.323 µg/mL
IC50, pseudovirus neutralization [23]: 0.602 µg/mL
IC50, pseudovirus neutralization [24]: 0.221 µg/mL
IC50, pseudovirus neutralization [25]: 23.5 µg/mL
neutralization IC50 [26]: > 50 µg/mL
IC50, pseudovirus neutralization [27]: 12.9 µg/mL
IC50, pseudovirus neutralization [28]: 0.001 µg/mL
neutralization IC50 [29]: 3.15 µg/mL
neutralization IC50 [30]: > 50 µg/mL
neutralization IC50 [31]: 0.005 µg/mL
IC50, pseudovirus neutralization [32]: 0.192 µg/mL
neutralization IC50 [33]: > 50 µg/mL
neutralization IC50 [34]: 0.01 µg/mL
IC50, pseudovirus neutralization [35]: 0.04 µg/mL
IC50, pseudovirus neutralization [36]: > 50 µg/mL
IC50, pseudovirus neutralization [37]: 0.005 µg/mL
IC50, pseudovirus neutralization [38]: 0.824 µg/mL
IC50, pseudovirus neutralization [39]: > 50 µg/mL
neutralization IC50 [40]: 0.012 µg/mL
neutralization IC50 [41]: 0.001 µg/mL
neutralization IC50 [42]: > 50 µg/mL
IC50, pseudovirus neutralization [43]: > 50 µg/mL
neutralization IC50 [44]: 0.066 µg/mL
neutralization IC50 [45]: 0.27 µg/mL
IC50, pseudovirus neutralization [46]: > 50 µg/mL
neutralization IC50 [47]: > 50 µg/mL
IC50, pseudovirus neutralization [48]: 12.5 µg/mL
neutralization IC50 [49]: 0.001 µg/mL
neutralization IC50 [50]: 0.076 µg/mL
IC50, pseudovirus neutralization [51]: > 50 µg/mL

PGT-145 (antibody)
neutralization IC50 [1]: > 50 µg/mL
IC50, pseudovirus neutralization [2]: 1.02 µg/mL
neutralization IC50 [3]: 0.002 µg/mL
neutralization IC50 [4]: 9.66 µg/mL
IC50, pseudovirus neutralization [5]: 14.7 µg/mL
neutralization IC50 [6]: 0.009 µg/mL
neutralization IC50 [7]: > 50 µg/mL
IC50, pseudovirus neutralization [8]: > 50 µg/mL
neutralization IC50 [9]: > 50 µg/mL
IC50, pseudovirus neutralization [10]: 0.361 µg/mL
IC50, pseudovirus neutralization [11]: > 50 µg/mL
IC50, pseudovirus neutralization [12]: 0.113 µg/mL
IC50, pseudovirus neutralization [13]: 0.224 µg/mL
IC50, pseudovirus neutralization [14]: 0.402 µg/mL
IC50, pseudovirus neutralization [15]: 0.065 µg/mL
IC50, pseudovirus neutralization [16]: 0.111 µg/mL
neutralization IC50 [17]: 0.206 µg/mL
IC50, pseudovirus neutralization [18]: 3.32 µg/mL
IC50, pseudovirus neutralization [19]: 34.3 µg/mL
IC50, pseudovirus neutralization [20]: 0.228 µg/mL
IC50, pseudovirus neutralization [21]: > 50 µg/mL
neutralization IC50 [22]: 0.013 µg/mL
IC50, pseudovirus neutralization [23]: 5.88 µg/mL
IC50, pseudovirus neutralization [24]: 3.48 µg/mL
IC50, pseudovirus neutralization [25]: 0.286 µg/mL
neutralization IC50 [26]: > 50 µg/mL
IC50, pseudovirus neutralization [27]: 13.6 µg/mL
IC50, pseudovirus neutralization [28]: 0.009 µg/mL
neutralization IC50 [29]: 0.079 µg/mL
neutralization IC50 [30]: 0.006 µg/mL
neutralization IC50 [31]: 0.018 µg/mL
IC50, pseudovirus neutralization [32]: 0.03 µg/mL
neutralization IC50 [33]: > 50 µg/mL
neutralization IC50 [34]: 0.002 µg/mL
IC50, pseudovirus neutralization [35]: 0.009 µg/mL
IC50, pseudovirus neutralization [36]: 10 µg/mL
IC50, pseudovirus neutralization [37]: 2.51 µg/mL
IC50, pseudovirus neutralization [38]: 0.816 µg/mL
IC50, pseudovirus neutralization [39]: 8.04 µg/mL
neutralization IC50 [40]: 0.013 µg/mL
neutralization IC50 [41]: 0.005 µg/mL
neutralization IC50 [42]: > 50 µg/mL
IC50, pseudovirus neutralization [43]: 0.721 µg/mL
neutralization IC50 [44]: 0.299 µg/mL
neutralization IC50 [45]: 0.044 µg/mL
IC50, pseudovirus neutralization [46]: 17.5 µg/mL
neutralization IC50 [47]: 0.915 µg/mL
IC50, pseudovirus neutralization [48]: 0.41 µg/mL
neutralization IC50 [49]: 1.2 µg/mL
neutralization IC50 [50]: 0.054 µg/mL
IC50, pseudovirus neutralization [51]: 1.76 µg/mL

Reference: patent US20200024330A1
